In patent US20190077863A1 (AERPIO PHARMACEUTICALS, published 2019):

T1: Human VE-PTP (HPTP-β) containing first eight FN3 repeats with C-terminal His6 tag (Human ½ VE-PTP ECD) (human, UniProt P23467 23-820)
T1 construct: Produced in HEK293 cells and purified by the His tag; it was not cut off; also called Human Beta ½ ECD
T1 sequence: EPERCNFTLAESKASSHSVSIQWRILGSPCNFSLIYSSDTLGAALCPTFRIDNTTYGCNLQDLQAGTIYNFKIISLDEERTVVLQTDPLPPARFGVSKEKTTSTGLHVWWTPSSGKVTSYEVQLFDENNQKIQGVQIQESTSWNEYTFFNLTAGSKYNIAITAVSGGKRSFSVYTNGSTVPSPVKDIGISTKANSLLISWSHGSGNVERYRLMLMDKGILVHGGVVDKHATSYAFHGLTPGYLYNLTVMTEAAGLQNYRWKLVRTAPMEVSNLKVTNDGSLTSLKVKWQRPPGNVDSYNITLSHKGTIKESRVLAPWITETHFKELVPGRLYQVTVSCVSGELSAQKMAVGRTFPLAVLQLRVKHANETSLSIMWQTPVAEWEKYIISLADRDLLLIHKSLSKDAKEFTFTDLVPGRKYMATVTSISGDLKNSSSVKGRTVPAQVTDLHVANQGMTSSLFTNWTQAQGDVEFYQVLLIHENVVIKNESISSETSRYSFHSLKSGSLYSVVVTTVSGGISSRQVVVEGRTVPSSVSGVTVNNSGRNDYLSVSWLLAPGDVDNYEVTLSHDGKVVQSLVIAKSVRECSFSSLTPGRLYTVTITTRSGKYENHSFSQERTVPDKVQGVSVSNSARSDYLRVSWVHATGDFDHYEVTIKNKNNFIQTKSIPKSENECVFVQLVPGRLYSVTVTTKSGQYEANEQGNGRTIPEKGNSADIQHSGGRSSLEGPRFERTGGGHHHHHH


Biological target: T1, Human VE-PTP (HPTP-β) containing first …
Test: SPR (Biacore 3000), antibody captured on anti-human IgG, antigen as analyte 50-0 nM
Method: Samples of each variant were further assessed by Biacore analysis to determine the binding affinity. Antibody binding experiments were performed on Biacore 3000™ at 25° C. Assay buffer: 10 mM HEPES buffer (pH 7.4), 150 mM NaCl, 3 mM EDTA, 0.05% P20 (polyoxyethylenesorbitan). […] Conjugation buffer: 10 mM sodium acetate buffer (pH 5). The flow rate used for capturing the ligand was 5 μL/min. The flow rate for the kinetic analysis was 50 μL/min. Flow cell 1 and […] of the CM5 chip were coated with maximum amounts of goat anti-human IgG. Approximately 150 RU of the test antibody was captured on flow cell 2, 3, and 4 as indicated. The antigen was flowed over the chip. Binding of the antigen to the antibodies was monitored in real time. The KD was determined from the observed kₒₙ and koff values.

Binder | Ka | Kd | koff | kon
mouse/human chimeric antibody HC0LC0 (antibody, human IgG4 S228P, kappa, V domains shown, Murine variable domains of R15E6 on human IgG4 (S228P) and kappa constant domains, expressed in CHO cells; also called VH0-VL0) VH: EVQLVETGGGLVQPKGSMKLSCAASGFTFNANAMNWIRQAPGKGLEWVARIRTKSNNYATYYAGSVKDRFTISRDDAQNMLYLQMNDLKTEDTAMYYCVRDYYGSSAWITYWGQGTLVTVSA VL: DIVMTQSHKFMSTSVGDRVSITCKASQHVGTAVAWYQQKPDQSPKQLIYWASTRHTGVPDRFTGSGSGTDFTLTISNVQSEDLADYFCQQYSSYPFTFGSGTKLEIKR | 3.18e+08 M⁻¹ | 3.14 nM | 0.000656 s⁻¹ | 209000 M⁻¹ s⁻¹
humanized R15E6 variant HC2LC1 (antibody, human IgG4 S228P, kappa, V domains shown, Human IgG4 (S228P) / kappa, expressed in CHO cells; Signal peptides left out by range; also called VH2-VL1) VH: EVQLVESGGGLVQPGGSLRLSCAASGFTFNANAMNWVRQAPGKGLEWVGRIRTKSNNYATYYAGSVKDRFTISRDDSKNSLYLQMNSLKTEDTAVYYCVRDYYGSSAWITYWGQGTLVTVSS VL: DVVMTQSPSFLSASVGDRVTITCKASQHVGTAVAWYQQRPGKAPKLLIYWASTRHTGVPSRFSGSGSGTEFTLTISSLQPEDFATYFCQQYSSYPFTFGGGTKLEIKR | 1.5e+10 M⁻¹ | 0.0668 nM | 7.23e-05 s⁻¹ | 1.08e+06 M⁻¹ s⁻¹
humanized R15E6 variant HC1LC2 (antibody, human IgG4 S228P, kappa, V domains shown, Human IgG4 (S228P) / kappa, expressed in CHO cells; Signal peptides left out by range; also called VH1-VL2) VH: EVQLVESGGGLVQPGGSLKLSCAASGFTFNANAMNWVRQASGKGLEWVGRIRTKSNNYATYYAGSVKDRFTISRDDSKNTAYLQMNSLKTEDTAAYYCVRDYYGSSAWITYWGQGTLVTVSS VL: DIVMTQSPDSLAVSLGERATINCKASQHVGTAVAWYQQKPGQPPKLLIYWASTRHTGVPDRFSGSGSGTDFTLTISSLQAEDVAVYYCQQYSSYPFTFGQGTKLEIKR | 4.33e+08 M⁻¹ | 2.31 nM | 0.000947 s⁻¹ | 410000 M⁻¹ s⁻¹
humanized R15E6 variant HC2LC4 (antibody, human IgG4 S228P, kappa, V domains shown, Human IgG4 (S228P) / kappa, expressed in CHO cells; Signal peptides left out by range; also called VH2-VL4) VH: EVQLVESGGGLVQPGGSLRLSCAASGFTFNANAMNWVRQAPGKGLEWVGRIRTKSNNYATYYAGSVKDRFTISRDDSKNSLYLQMNSLKTEDTAVYYCVRDYYGSSAWITYWGQGTLVTVSS VL: DIVMTQSPDSLAVSLGERATINCKASQHVGTAVAWYQQKPEQPPKLLIYWASTRHTGVPDRFSGSGSGTDFTLTISSLQAEDVAVYYCQQYSSYPFTFGGGTKVEIKR | 2.3e+09 M⁻¹ | 0.436 nM | 0.000429 s⁻¹ | 986000 M⁻¹ s⁻¹
humanized R15E6 variant HC1LC4 (antibody, human IgG4 S228P, kappa, V domains shown, Human IgG4 (S228P) / kappa, expressed in CHO cells; Signal peptides left out by range; also called VH1-VL4) VH: EVQLVESGGGLVQPGGSLKLSCAASGFTFNANAMNWVRQASGKGLEWVGRIRTKSNNYATYYAGSVKDRFTISRDDSKNTAYLQMNSLKTEDTAAYYCVRDYYGSSAWITYWGQGTLVTVSS VL: DIVMTQSPDSLAVSLGERATINCKASQHVGTAVAWYQQKPEQPPKLLIYWASTRHTGVPDRFSGSGSGTDFTLTISSLQAEDVAVYYCQQYSSYPFTFGGGTKVEIKR | 4.44e+08 M⁻¹ | 2.25 nM | 0.00134 s⁻¹ | 596000 M⁻¹ s⁻¹
